Data on one substance can be found in patent US7422862B2, “Methods for identifying modulators of apoptosis” (The Burnham Institute, priority 2001, dated 2008).

This experiment has as its target T1, GFP-Bax (Homo sapiens, UniProt Q07812).
T1 construct: expressed in transfected cells; host or cells: Cos-7
Nature of the experiment: STS-induced GFP-Bax translocation to mitochondria in Cos7 cells (confocal microscopy). The format is cell-based. As to conditions: peptide transduced with Chariot, 1 μM STS. How it is done:
(A-B) Humanin peptide prevents STS-induced Bax translocation in vivo. Cos-7 cells were first transfected with GFP-Bax plasmids. After 24 hrs, untagged wild-type or C8P mutant Humanin peptides were introduced into cells using ChariotTM reagent, and 2 h later cells were treated with 1 μM STS. After 4 h, the percentage of cells with translocated Bax was determined (mean±SD; n=3) by confocal microscopy (A) and representative photomicrographs (B). (C) Wild-type or C8P mutant Humanin peptides were introduced into Cos7 cells using ChariotTM reagent. Cytosolic (C) and mitochondria-containing (M) fractions were isolated by differential centrifugation 23 and analyzed by immunoblotting using anti-Bax (top), Hsp60 (middle) (mitochondrial marker), or Tubulin (bottom) (cytosol marker) antibodies. (D) HN or mutant control double-strand siRNAs were transfected into SF268 cells. After 48 h, cells were cultured without (Control) or with 0.1 uM STS. After 24 hr, cells were fractionated and analyzed by immunoblotting as above. (E) Isolated mitochondria were mixed with 400 ng Bax protein, with or without preincubating Bax with 100 uM Humanin or Humanin(C8P) peptides for 10 min. After 3 h at 30° C., mitochondria were centrifuged and the resulting pellets (P) and supernatants (S) were analyzed by immunoblotting using anti-Cytochrome c (top), Hsp60 (middle), and Bax (bottom) antibodies. […]

T1 sequence (Q07812 whole entry): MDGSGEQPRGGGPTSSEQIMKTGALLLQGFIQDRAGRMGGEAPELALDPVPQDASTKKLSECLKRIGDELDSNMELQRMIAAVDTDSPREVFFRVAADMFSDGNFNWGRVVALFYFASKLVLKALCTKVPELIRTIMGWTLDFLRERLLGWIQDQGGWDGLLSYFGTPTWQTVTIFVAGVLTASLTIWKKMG

As to “Humanin: 24 amino acid polypeptide, cytosolic form of human Humanin (SEQ ID NO:2); used as synthetic peptide or expressed fusion”, the “suppression of GFP-Bax translocation” value was “about half”.
